Data on 41 sequences can be found in the nanobody polyreactivity screen of Harvey et al. (2022).

This series can be described thus: yeast display, Sf9 membrane polyspecificity reagent, FACS + sequencing; frameworks hold sequencing errors. Summed up: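 Using colony PCR, genes from sorted yeast display clones were amplified, then sequenced on MiSeq at 2 × 250 and filtered by CDR length. The clones had been stained with 10% biotinylated, detergent-solubilized Sf9 membrane reagent for 1 hour at 4 °C and sorted by FACS into low and high (top ~1%) gates on anti-HA and streptavidin fluorescence. Polyreactivity labels come from the gate of origin.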
For “QVQLVESGGGLVQAGGSLRLSCSAYGSIFYGYAMGWYRQAPGKERELVAAITWSGGSTYYADSVKGRFTISRDIAKNTVYLQMNSLKPEDTAVYYCNALWVWYRGSSVRWVGGYDYWGQGTQVTVSS”, the “polyreactivity (PSR sort gate)” value is listed as “high polyreactivity”. Next, “QVQLVESGGGLVQAGGSLRLSCAASGSTFPGYAMGWYRQAPGKERELVASIYTGGSTYYADSVKGRFTISRDNAKKTVYLQMHSLKPEDSAVYYCAADSYNVSSLMYYWGQGTQVTVSS”: “low polyreactivity”.

Consider “QDQLVESGGGLVQAGGSLRLSCAASRLTFYVYAMGWYRQAPGKERELVAAISGRGGRTYYADSVKGRFTISRDNAKNTVYLQMNSLKPEDTAVYDCAPRYPRYRYVEYGYNYWGQGTQVTVSS”, for which the “polyreactivity (PSR sort gate)” value is listed as “high polyreactivity”. Next, “QVQLVESGGGLVQAGGSLRLSCAASGSTFRYYAMGWYRQAPGKERELVATISSGGSTNYADSVKGRFTISRDNAKNTVYLQMNSLKPEDTAVYYCAAAYPQFWYWDYNYWGQGTQVTVSS”: “high polyreactivity”. With “QVQLVESGGGLVQAGGSLRLSCAASGSTFYSNAMGWDRQAPGKERELVASISWSSGSTYYADSVKGRFTISRDNAKNTVYLQMNSLKPEDTAVYYCATDAGGPYRFGYWGQGTQVTVSS” the entry was “low polyreactivity”. Next, “QVQLVESCGGLVQAGGSLRLSCAASGFIFYYYAMGWYRQAPGKERELVAGITRGGSTYYADSVKGRFTISRDNAKNTVYLQMNSLKPEDTAVYYCASTYYLSYTSGTFGKFGYWGQGTQVTVSS”: “high polyreactivity”; “QVQLVESGGGLVQAGGSLRLSCAASGSILQRNAMGWYRHARGTERELVAAISWSGDNTYYADSVKGRFTISRDNAKNTVYLQMISLKPEDTAVYYCATDDDIYFQEYDYWGQGTQVTVSA”: “low polyreactivity”; “QVQLVESGGGLVQAGGSLRLSCAASGRTFLRYTMGWYRQAAGKERELVAVITNGGTRTYYADSVKGRFTISRDNAKNTVYLQMNSLKPEYTAVYYCAARVRYTANYDYWGQGTQVTVSS”: “high polyreactivity”.

With “QVQLVESGGGLVQAGGSLRLSCAASGRISYRNAMGWYRQAPGKERELVATITNGGSTYYADSVKGRFTISRDNAKNTVYLQMNSLKPEDTAVYYCAKEVWNWGPYYYWGQGTQVTVSS”, the “polyreactivity (PSR sort gate)” value is recorded as “low polyreactivity”. With “QLQLVESGGGLVQAGGSLRLSCAASGRTFRLNGMGWYRQAPGKERELVAAITWSGGRTYYADSVKGRFTISRDNAKNTVYLQMNSLNPEDTAVYYCAAGKSSYGKPKYYYWGQGTQVTVSS” the entry was “high polyreactivity”; with “QVQLVESGGGLVQAGGSLRISCAASGNILFSYAMGWYRQAPGKERELVAAISRSGGSTYYADSVKGRFTISRDNAKNTVYLQMNSLKPEDTAVYYCNTYSIAYYSPGYDYWGQGTQVTVSS”, “high polyreactivity”.

In the case of “QVQLVESGGGLVQAGGSLRLSCADSGLTFWAYAMGWYRQAPGKARELVAGISSGVSTYYADSVKGRFTISRDNAKNTFYLQMNSLKPEDTEVYYCAAYVYTWYYYDVGYWGQGTQVTVSS”, the “polyreactivity (PSR sort gate)” value is “high polyreactivity”. Next, “QVQLVESGGGLVHAGGSLRLSCAASGLIFYDNMGWYRQAPGKERELVAAISSSGGSTSYADSVKGRFTISRDNAKNTVYLQMNSLKPEDTAVYYCAAVSGPFVQTSGNGEYDYWGQGTQVTVSS”: “low polyreactivity”; “QVQLVESGGGIVQAGGSLRLSCAASGSTLWGNVMRSYRQAPGKERELVAVISKTGGSTYYADSVKGRFTISRDNAKNTVYLQMNSLKPEDSAVYYCATRWPYRSDWGLGTQVTVSS”: “high polyreactivity”.

In the case of “QVQLVESGGGLVQAGGSLRLSCAASGSTLGAYAMGWYRQAPGKERELVAAISRSGGNTYYADSVKGRFTISRDNAKNTVYLQMNSLKPEDTAVYYCAAVRLYRYDYWGQGTQVTVSS”, the “polyreactivity (PSR sort gate)” value is “low polyreactivity”.

On to “QVQLVESGGGLVQAGGSLRLSCAASGFTSSRNAMGWYRQAPGKERELVAAISSGTSTNYADSVKGRFTISRDNAKNTVYLQMNSLKPEDTAVYYCAAGSYSRYLYSLYFDFDYWGQGTQVTVSS”, for which the “polyreactivity (PSR sort gate)” value was “low polyreactivity”. Next, “QVQHVESGGGLVQAGGSLRLRCAASARTFLANAMGWYRQAPGKERELLAAITYSGGRTYYADSVKGRFTISRDNAKNTVYLQMNSLKPEDTAVYYCAAEGKVTSQYTMDYWGLGTQVTVSS”: “high polyreactivity”; “QVQLVESGGGLVQAGGSLRLSCAASGRTFNYNAMGWYRQAPGKERELVAAISWGGGSTFYAVSEKGRFTISRDNAKNTVYLQMNTLKPEDTAVYYCAADRQYGNRGAYYYWGQGTQVTVSS”: “low polyreactivity”; “QVQLVESGGGLVQAGGSLRLSCAASGLIFYYYAIGWYRQAPGKERELVAAITTGGGTYYADSVKGRFSISRVNAKNTVYLQMNSLKPEDTAVYYCAVYYRSYWGYEYWGQGTQVTVSS”: “high polyreactivity”.

Consider “QVQLVESGGGLVQAGGSLRLSCAASGITIKRYAIGWYRQAPGKEREFVATISQSGTSTYYADSVKGRFTISRDNAMNTVYLQMNSLKPEDTAVYYCAADYIGYWYGYYSWGQGTQVTVSS”, for which the “polyreactivity (PSR sort gate)” value is given as “low polyreactivity”.

Turning to “QVQLVDSGGGLVQAGGSLRLSCAASGSIFVKYAMGWYRQAPGKERELVAAISWRGGSTYYADSVKGRFTISRDNAKNTVYLQMNSLKPEDTAVYYCAKYPGISGYNYWGQGTQVTVSS”, the “polyreactivity (PSR sort gate)” value was “high polyreactivity”.

In the case of “QVQLVDSGGGLVQAGGSLRLSCAASGFTFYSYAMGWYRQAPGKERELVASITSGGSTYYADSVKGLFTISRDNGKNTVYLPMNSLNPEYTAVSYCAATRGYSQYGRVRKYGYWGLGTQVTVSS”, the “polyreactivity (PSR sort gate)” value is given as “high polyreactivity”.

Take “QVQLVESGGGLVQAGGSLRLSCAASGFTFVYYTMGWYRQAPGKERELVAAITSRGGNTYYADSVKGRFTISRDNAKNTVYLQMNSLKPEDTAVYYCAARRITTYYYWGQGTQVTVSS”: the “polyreactivity (PSR sort gate)” value is on record as “high polyreactivity”. With “QVQLVESGGGLVQAGGSLRLSCAASGCIFRYYAMGWYRQAPGKERELVAAISWGGGSTYYADSVKGRCTISRDNAKNTVYLQINSLKPEDTAVYYCNTYTYAWSRSKRGYWGQGTQVTVSS” the entry was “high polyreactivity”; with “QVQLVESGGGLVQAGGSLRLSCAASGSTIGPNAMGSYRQAPGKERELVAAIRSNGGRTYYADSVKGRFTISRDNAKNTVYLQMNSLKPEDTAVYYCAAPHYPYDTPYGYWGQGTQVTVSS”, “low polyreactivity”; with “QVQLVESGGGLVQAGGSLRLSCAASGRIFPFYAMGWYRQAPGKERELVAAITQSGGSTYYADSVKGRFTISRDNAKNTVYLQMNSLKPEDTAVYYCAADYGSFLYGYPTYDYWGQGTQVTVSS”, “low polyreactivity”. With “QVQLVESGGGLVQAGGSLRLSCGASGRTFYRYDMGWYRQAPGKERELVASITSGGNTNYADSVKGRFTISRDNAKNTVYLQMNSLKPEDTAVYYCAKEWYRVQHYRLITEFDYWGQGTQVTVSS” the entry was “high polyreactivity”.

For the sequence “QVQLVESGGGLVQAGGSLRLSCAASGSTFEGNAMVWYRPAPGKERELVAAISSGGRTYYADSVKGRFTISRDNAKNTVYLQMNSLKPEDTAVYYCAAYVRRGFDWGQGTQVTVSS”, the “polyreactivity (PSR sort gate)” value is “high polyreactivity”. Next, “QVQLVESGGGLVQAGGSLRLSCAASGRTFVVYAMGWYRQAPGKERELVAAINWSGTSTYYADSVKGRFTISRDNAKNTVYLQMNSLKPEDTAVYYCAAVAGLGTYRRYGYWGQGTQVTVSS”: “high polyreactivity”; “QVQLVESGGGLVQAGGSLRLSCAASGRIFYFYAMGLYTQAPGKERELVAVISYGGDRTSYADSVKGRFTISRDNAKNTVYLQMNSLKPEDSAVYYCAARPFYRGYYYWGQGTQVTVSS”: “high polyreactivity”; “QVQLVESGAGLVQAGGSLRLSCAASGRIFDNYVMGWYRQAPGKERELVAAISSGGGTYYADSVKGRFTISRDNAKNTVYLQMNSLKPEDTAVYYCAKRRVYDRSFGRYDYWGQGTKVTVSS”: “low polyreactivity”. With “QVQLVESGGGLVQAGGSLRLSCAASGSIFSSYAMGWYRQAPGKERELVAAISWRGGSTYYADSVKGRFTISRDNAKNTVYLQMNSLKPEDTAVYYCAAQYQYYGGRRYDYWGQGTQVTVSS” the entry was “high polyreactivity”; with “QDQLVESGGGLVQAGGSLRLSCAASGRIFGFNAMGWYRQAPGKERELVAAISWRGGSTRYADSVKGRFTISRDNAKNTVYLQMNSLKPEDTAVYYCATPYADPGTVQYAGYNYWGQGTQVTVSS”, “high polyreactivity”; with “QVQLVESGGGLDQAGGSLRLSCAASGSIILVNAMGWYRQAPGKERELVAAISWRGGRTRYADSVKGRFTISRDNAKNTVYLQMNSLKPEDTAVYYCAAAGRPVGPRYDYWGQGTQVTVSS”, “high polyreactivity”. Regarding “QVQLVESGGGLVQAGGSIRLTCAASGRIYEIYTMGWYRQATGKETEFVAGITWSGGSTYYADSVKGRFTISRDNAKNTFYLQMNSLKPEDTAVYYCATDEVYWTGYAPSLFDYWGQGTQVTVSS”, the “polyreactivity (PSR sort gate)” value is given as “low polyreactivity”. Next, “QVQLVESGGGLVQAGGSLRLSGDASGSIFVWYDMGWYRQAPGKERELVATISLSGVSTYYADSVKGRFTISRDNAKKTVYLQMNSLKPEDNAVYYCAADFVEQGEDDYCGQGTQVTVSS”: “low polyreactivity”.

Regarding “QVQLQESGGGLVEAGGTLRLSCAASGSYSADEDMGWYRQAQGKEREFVAGISVGGNTNYADSVKGRFTSSRENAKNSLFLQINSLKPEDTAVYYCAVLPDVYDALDYWAQGTQVTVSS”, the “polyreactivity (PSR sort gate)” value is “high polyreactivity”. Next, “QVQREESGGGLVQAGGSLRLSCAASGSTFDAYAMGWYRQAPGKERELVAAITWSGGSTYYADSVKGRFTISRDNAKNTVYLQMNSLKPEATAVYYCAADKLGELDYWGQGTQVTVSS”: “low polyreactivity”; “QVQLVESGGGLVQAGGSLRLSCAASGRIFPSYAMGWYRQAPGKERELVAAISSSGGRTYYADSVKGRFTISRDNAKNTVYLQRNSLKPEDSAVYYCAARWVQYGVRYDYWGHGTQVTVSS”: “high polyreactivity”. Next, “QVQLVESGVGLVQAGGSLRVSCAASGSTIPIYAMGWYRQAPGKERELVAVISRSGGITYYADSVKGRFTISRDNAKNTVYLQMNSLKPEDTAVYYCNARTRGWTPDRGYWGQGTQVTVSS”: “high polyreactivity”; “QVQLVESCGGLVQAGGSLRLSCADSGRTFGSYAMGWYRQATRKDRELVASISRSGGTTYYADSVKGRFTLSRDNAKNTVYLQMYSQKPEDTAVYYCAAQYVRYGLYYWGQGTQVTVSS”: “high polyreactivity”.
